Measurements as given in patent US20250382344A1, “Soluble GLP1/GIP/NPY2 Receptor Triple Agonists” (Boehringer Ingelheim International GmH, priority 2024, published 2025).
Read-outs that look alike come from different tables or passages of the source. *1 amine or outer side, *2 acyl side, *3 side chain or, on linkers, in order; H or OH if unused. Where no end group is shown, it is not given here. Side-chain parts run from the residue outwards. [ ]: non-standard residue; d: D form. The star is where a group is joined. C20 diacid = O=C(O)CCCCCCCCCCCCCCCCCCC(=O)*; C18 diacid = O=C(O)CCCCCCCCCCCCCCCCC(=O)*; γGlu = O=C(O)[C@H](CCC(=O)[*:2])N[*:1]; εLys = N[C@@H](CCCCN[*:1])C(=O)[*:2]; TRX = not defined here; Aib = CC(C)(N)C(=O)O

T1: hGIPR (Homo sapiens, UniProt P48546)
T1 construct: expressed in transfected cells; host or cells: CHO CRE-luciferase reporter cells
T1 sequence (P48546 22-466): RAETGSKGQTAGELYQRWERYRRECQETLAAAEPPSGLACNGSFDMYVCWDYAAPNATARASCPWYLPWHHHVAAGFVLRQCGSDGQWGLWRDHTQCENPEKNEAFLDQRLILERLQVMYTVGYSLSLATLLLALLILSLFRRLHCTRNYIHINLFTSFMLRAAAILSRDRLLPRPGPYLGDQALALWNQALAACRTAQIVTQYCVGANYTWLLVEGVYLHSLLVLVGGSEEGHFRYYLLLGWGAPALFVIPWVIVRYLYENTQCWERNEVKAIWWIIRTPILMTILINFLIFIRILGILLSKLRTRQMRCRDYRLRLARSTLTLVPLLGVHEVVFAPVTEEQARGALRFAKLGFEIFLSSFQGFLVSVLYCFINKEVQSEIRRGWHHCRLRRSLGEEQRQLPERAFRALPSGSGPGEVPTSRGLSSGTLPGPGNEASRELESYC

T2: human GIP receptor (human, UniProt P48546 22-466)
T2 sequence (looked up): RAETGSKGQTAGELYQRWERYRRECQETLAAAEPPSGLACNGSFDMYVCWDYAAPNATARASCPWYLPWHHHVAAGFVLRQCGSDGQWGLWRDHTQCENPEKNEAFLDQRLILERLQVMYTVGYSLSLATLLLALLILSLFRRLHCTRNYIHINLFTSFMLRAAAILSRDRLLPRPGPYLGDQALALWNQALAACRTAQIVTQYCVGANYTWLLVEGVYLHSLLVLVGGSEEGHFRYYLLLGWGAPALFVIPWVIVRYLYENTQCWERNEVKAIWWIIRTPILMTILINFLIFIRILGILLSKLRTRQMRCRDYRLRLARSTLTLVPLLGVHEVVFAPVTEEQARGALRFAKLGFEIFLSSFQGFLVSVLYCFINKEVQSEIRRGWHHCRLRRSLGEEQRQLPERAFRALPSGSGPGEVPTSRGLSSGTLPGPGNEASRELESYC

T3: human neuropeptide Y2 receptor (human, UniProt P49146 1-381)
T3 sequence (looked up): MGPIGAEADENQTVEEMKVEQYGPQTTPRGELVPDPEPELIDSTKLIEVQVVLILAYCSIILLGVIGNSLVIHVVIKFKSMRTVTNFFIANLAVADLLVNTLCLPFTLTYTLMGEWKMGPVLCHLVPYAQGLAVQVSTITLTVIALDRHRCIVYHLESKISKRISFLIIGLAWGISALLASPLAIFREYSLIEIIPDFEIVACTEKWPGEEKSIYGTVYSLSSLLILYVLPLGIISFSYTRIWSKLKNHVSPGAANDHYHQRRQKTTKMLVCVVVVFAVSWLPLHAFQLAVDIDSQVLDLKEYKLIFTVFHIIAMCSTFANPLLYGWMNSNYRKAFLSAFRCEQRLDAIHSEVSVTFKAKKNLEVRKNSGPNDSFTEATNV


What was measured:
hGLP1R = molecular target: T4, hGLP1R (Homo sapiens, UniProt P43220); assay: hGLP1R CreLuc assay in 0.5% and 100% plasma (HEK-293 CRE-luciferase reporter cells); format: cell-based; conditions: HEK-293 reporter cells
T4 construct: expressed in transfected cells; host or cells: HEK-293 CRE-luciferase reporter cells
T4 sequence (P43220 24-463): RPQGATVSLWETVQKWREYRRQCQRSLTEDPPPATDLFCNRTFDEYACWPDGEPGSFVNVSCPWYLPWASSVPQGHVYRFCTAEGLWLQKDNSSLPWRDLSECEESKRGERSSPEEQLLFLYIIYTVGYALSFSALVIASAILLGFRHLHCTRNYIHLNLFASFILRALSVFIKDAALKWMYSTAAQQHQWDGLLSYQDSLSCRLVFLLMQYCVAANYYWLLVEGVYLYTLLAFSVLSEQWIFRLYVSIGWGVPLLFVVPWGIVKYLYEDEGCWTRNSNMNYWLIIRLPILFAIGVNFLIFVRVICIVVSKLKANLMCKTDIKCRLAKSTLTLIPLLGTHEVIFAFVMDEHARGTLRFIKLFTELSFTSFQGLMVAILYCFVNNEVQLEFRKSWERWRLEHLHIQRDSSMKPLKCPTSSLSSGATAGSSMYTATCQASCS

hGIPR = molecular target: T1, hGIPR; assay: hGIPR CreLuc assay in 0.5% and 100% plasma (CHO CRE-luciferase reporter cells); format: cell-based; conditions: 0.5% human plasma, read-out: hGIPR 0.5% hP
[1] = Solubility in 0.1 M phosphate buffer at pH 7; format: physicochemical; conditions: 0.1 M phosphate buffer at pH 7, 10 mg/mL final peptide concentration, shaking 2 hours at room temperature, peptides as TFA-salts; measured sample pH 6.5-7.0
human GIP receptor = molecular target: T2, human GIP receptor; assay: cell-based or functional assay
[2] = molecular target: T3, human neuropeptide Y2 receptor; assay: cell-based or functional assay

Molecule	EC50, CreLuc reporter, 0.5% hP (human GIP receptor) [nM]	EC50, CreLuc reporter, 100% hP (human GIP receptor) [nM]	EC50, CreLuc reporter, 0.5% hP [2] [nM]	EC50, CreLuc reporter, 100% hP [2] [nM]	also measured
CC[C@H](C)[C@H](NC(=O)[C@H](CC(C)C)NC(=O)[C@H](Cc1c[nH]cn1)NC(=O)[C@H](CCCNC(=N)N)NC(=O)[C@@H](NC(=O)[C@H](Cc1ccccc1)NC(=O)[C@H](C)NC(=O)C(C)(C)NC(=O)[C@H](CCC(N)=O)NC(=O)[C@H](C)NC(=O)[C@H](CCC(N)=O)NC(=O)[C@H](CCCCN)NC(=O)[C@H](CCC(=O)O)NC(=O)[C@H](CC(C)C)NC(=O)[C@](C)(CC(C)C)NC(=O)[C@@H](NC(=O)[C@H](CO)NC(=O)[C@H](Cc1ccc(O)cc1)NC(=O)[C@H](CC(=O)O)NC(=O)[C@H](CO)NC(=O)[C@@H](NC(=O)[C@H](Cc1ccccc1)NC(=O)[C@@H](NC(=O)CNC(=O)[C@H](CCC(=O)O)NC(=O)C(C)(C)NC(=O)[C@@H](N)Cc1ccc(O)cc1)[C@@H](C)O)[C@@H](C)O)[C@@H](C)CC)C(C)C)C(=O)N[C@@H](CC(N)=O)C(=O)N[C@@H](CCCCNC(=O)CC[C@H](NC(=O)CC[C@H](NC(=O)CC[C@H](NC(=O)CC[C@H](NC(=O)CC[C@H](NC(=O)CC[C@H](NC(=O)CCCCCCCCCCCCCCCCCCC(=O)O)C(=O)O)C(=O)O)C(=O)O)C(=O)O)C(=O)O)C(=O)O)C(=O)NC(C)(C)C(=O)N[C@H](C(=O)N[C@@H](CCCNC(=N)N)C(=O)N[C@@H](CCC(N)=O)C(=O)N[C@@H](CCCNC(=N)N)C(=O)N[C@@H](Cc1ccc(O)cc1)C(N)=O)[C@@H](C)O [Compound 49, Y-Aib-E-G-T-F-T-S-D-Y-S-I-aMeL-L-E-K-Q-A-Q-Aib-A-F-V-R-H-L-I-N-K(1,3)-Aib-T-R-Q-R-Y-NH2.C20DA-gGlu-gGlu-gGlu-gGlu-gGlu-gGlu(1,2)]					EC50 (hGLP1R; 0.5% human plasma, read-out: hGLP1R 0.5% hP): 0.3 nM; EC50 (hGIPR): 0.1 nM; solubility at 2 h [1]: 10000 µg/mL
CC[C@H](C)[C@H](NC(=O)[C@H](CC(C)C)NC(=O)[C@H](Cc1c[nH]cn1)NC(=O)[C@H](CCCNC(=N)N)NC(=O)[C@@H](NC(=O)[C@H](Cc1ccccc1)NC(=O)[C@H](CCC(=O)O)NC(=O)C(C)(C)NC(=O)[C@H](CCC(N)=O)NC(=O)[C@H](C)NC(=O)[C@H](CCC(N)=O)NC(=O)[C@H](CCCCN)NC(=O)[C@H](CCC(=O)O)NC(=O)[C@H](CC(C)C)NC(=O)C(C)(C)NC(=O)[C@@H](NC(=O)[C@H](CO)NC(=O)[C@H](Cc1ccc(O)cc1)NC(=O)[C@H](CC(=O)O)NC(=O)[C@H](CO)NC(=O)[C@@H](NC(=O)[C@H](Cc1ccccc1)NC(=O)[C@@H](NC(=O)CNC(=O)[C@H](CCC(=O)O)NC(=O)C(C)(C)NC(=O)[C@@H](N)Cc1ccc(O)cc1)[C@@H](C)O)[C@@H](C)O)[C@@H](C)CC)C(C)C)C(=O)N[C@@H](CC(N)=O)C(=O)N[C@@H](CCCCNC(=O)[C@@H](N)CCCCNC(=O)CC[C@H](NC(=O)CC[C@H](NC(=O)CC[C@H](NC(=O)CC[C@H](NC(=O)CC[C@H](NC(=O)CC[C@H](NC(=O)CC[C@H](NC(=O)CCCCCCCCCCCCCCCCC(=O)O)C(=O)O)C(=O)O)C(=O)O)C(=O)O)C(=O)O)C(=O)O)C(=O)O)C(=O)NC(C)(C)C(=O)N[C@H](C(=O)N[C@@H](CCCNC(=N)N)C(=O)N[C@@H](CCC(N)=O)C(=O)N[C@@H](CCCNC(=N)N)C(=O)N[C@@H](Cc1ccc(O)cc1)C(N)=O)[C@@H](C)O [Compound 30, Y-Aib-E-G-T-F-T-S-D-Y-S-I-Aib-L-E-K-Q-A-Q-Aib-E-F-V-R-H-L-I-N-K(1,3)-Aib-T-R-Q-R-Y-NH2.C18DA-gGlu-gGlu-gGlu-gGlu-gGlu-gGlu-gGlu-eLys(1,2)]					EC50 (hGLP1R; 100% human plasma, read-out: hGLP1R 100% hP): 0.9 nM; EC50 (hGIPR): 0.3 nM; solubility at 2 h [1]: 4700 µg/mL
YXEGTFTSDYSIXLEKQAQXAFVRHLINKXTRQRY (Aib at 2, 13, 20, 30; NMeQ at 33; Lys29 epsilon-amino acylated with C18DA-gGlu-gGlu-gGlu-gGlu-gGlu-gGlu-eLys; C-terminal amide) [Compound 17]		2	29.4		
YXEGTFTSDYSIXLEXQAQXAFVRHLINKXTRQRY (Aib at 2, 13, 16, 20, 30; Lys29 epsilon-amino acylated with C18DA-gGlu-gGlu-gGlu-gGlu-gGlu-gGlu-eLys; C-terminal amide) [Compound 5]		25	28.6	89.4	
YXEGTFTSDYSIXLEKAAQXAFVRHLINKXTRQRY (Aib at 2, 13, 20, 30; Lys29 epsilon-amino acylated with C20DA-gGlu-gGlu-gGlu-gGlu-gGlu-gGlu-eLys; C-terminal amide) [Compound 4]	0.3	11.5	17.7	194	
YXEGTFTSDLSIXLEKQAQXAFVRHLINKXTRQRY (Aib at 2, 13, 20, 30; Lys29 epsilon-amino acylated with C20DA-gGlu-gGlu-gGlu-gGlu-gGlu-gGlu-eLys; C-terminal amide) [Compound 20]	0.4				
YXEGTFTSDFSIXLEKQAQXAFVRHLINKXTRQRY (Aib at 2, 13, 20, 30; Lys29 epsilon-amino acylated with C20DA-gGlu-gGlu-gGlu-gGlu-gGlu-gGlu-eLys; C-terminal amide) [Compound 15]	0.6				
YXEGTFTSDYSIXLEKIAQXAFVRHLINKXTRQRY (Aib at 2, 13, 20, 30; Lys29 epsilon-amino acylated with C18DA-gGlu-gGlu-gGlu-gGlu-gGlu-gGlu-eLys; C-terminal amide) [Compound 24]	1	26.2			
Y[Aib]EGTFTSDYSI[Aib]LEKQAQ[Aib]AFVRHLINK([εLys-γGlu-γGlu-γGlu-γGlu-γGlu-γGlu-γGlu-C18 diacid])ITRQRY-NH2 [Compound 18]	0.2				
Y[Aib]EGTFTSDYSI[Aib]LEKQAQ[Aib]AFVRHLINK([εLys-εLys-γGlu-γGlu-γGlu-γGlu-γGlu-γGlu-C18 diacid])[Aib]TRQRY-NH2 [Compound 11]		8			

Continued, in another order:

EC50, CreLuc reporter, 0.5% hP (human GIP receptor) [nM]	EC50, CreLuc reporter, 100% hP (human GIP receptor) [nM]	EC50, CreLuc reporter, 0.5% hP [2] [nM]	EC50, CreLuc reporter, 100% hP [2] [nM]	Molecule	also measured
0.5	6.5	17.1	44.6	Y[Aib]EGTFTSDYSI[Aib]LEKQAQ[Aib]EFVRHLINK([εLys-γGlu-γGlu-γGlu-γGlu-γGlu-γGlu-γGlu-C18 diacid])LTRQRY-NH2 [Compound 32]	
0.3				YXEGTFTSDYSIXLEEQAQXAFVRHLINKXTRQRY (Aib at 2, 13, 20, 30; Lys29 epsilon-amino acylated with C18DA-gGlu-gGlu-gGlu-gGlu-gGlu-gGlu-eLys; C-terminal amide) [Compound 71]	
1.7				YXEGTFTSDYSIXLEKQAQXAFVRHLLNKXTRQRY (Aib at 2, 13, 20, 30; Lys29 epsilon-amino acylated with C20DA-gGlu-gGlu-gGlu-gGlu-gGlu-gGlu-eLys; C-terminal amide) [Compound 80]	
0.4	7	18.3	108	YXEGTFTSDYSIXLDAQAQXAFVRHLINKXTRQRY (Aib at 2, 13, 20, 30; Lys29 epsilon-amino acylated with C18DA-gGlu-gGlu-gGlu-gGlu-gGlu-gGlu-eLys; C-terminal amide) [Compound 55]	
0.7	23.3	335	522	YXEGTFTSDYSIXLEKQAQXAFVRQLINKXTRQRY (Aib at 2, 13, 20, 30; Lys29 epsilon-amino acylated with C18DA-gGlu-gGlu-gGlu-gGlu-gGlu; C-terminal amide) [Compound 50]	
0.1	1.7			YXEGTFTSDYSIXLEKQAQXAFIRHLINKXTRQRY (Aib at 2, 20, 30; aMeL at 13; Lys29 epsilon-amino acylated with C20DA-gGlu-gGlu-gGlu-gGlu-gGlu-gGlu-eLys; C-terminal amide) [Compound 53]	
0.9	22.9	10.8	119	YXEGTFTSDYSIXLEKQAQXEFVRHLINKLTRQRY (Aib at 2, 13, 20; Lys29 epsilon-amino acylated with C20DA-gGlu-gGlu-gGlu-gGlu-gGlu-gGlu-eLys; C-terminal amide) [Compound 39]	
0.3		16.2	59.4	YXEGTFTSDYSIXLDEQAQXAFVRHLINKXTRQRY (Aib at 2, 13, 20, 30; Lys29 epsilon-amino acylated with C18DA-gGlu-gGlu-gGlu-gGlu-gGlu-gGlu-eLys; C-terminal amide) [Compound 40]	
0.3				Y[Aib]EGTFTSDYSILLEKQAQ[Aib]AFVRHLINK([γGlu-γGlu-γGlu-γGlu-γGlu-γGlu-C20 diacid])[Aib]TRQRY-NH2 [Compound 57]	
	14.9	76.4	131	Y[Aib]EGTFTSDYSI[Aib]LEKQAQ[Aib]AFVRHLINK([γGlu-γGlu-γGlu-γGlu-γGlu-γGlu-TRX-C18 diacid])[Aib]TRQRY-NH2 (reading uncertain) [Compound 31]	
0.7		22.9		Y[Aib]EGTFTSDYSI[Aib]LEKQAQ[Aib]AFVRHLINK([εLys-γGlu-γGlu-γGlu-γGlu-γGlu-γGlu-γGlu-C20 diacid])[Aib]TRQRY-NH2 [Compound 35]	
